{"source": "patent US20260201022A1", "binders": {"B1": {"name": "αBauA mouse monoclonal antibody against BauA of Acinetobacter baumannii (hybridoma subclone 12C1) (antibody, V domains shown)", "VH": "EVQLQESGADLVRPGSSVKISCKASGYAFSNYWMHWMKQRPGQGLEWIGQIYPGDGDTNYNGKFKGKATLTADKSSSSAYMQLSSLISEDSAVYFCARGDFYYGSPFAYWGQGTLVTVSA", "VL": "DIVMTQAAPSVPVTPGESVSISCRSSKSLLHSNGNTYLYWFLQRPGQSPQLLIYRMSNLASGVPDRFSGSGSGTAFTLRISRVEAEDVGVYYCMQHLEYPLTFGAGTKLELK"}}, "molecular_target": "BauA on the surface of the strains of the A. baumannii diversity set (100 strains, MRSN)", "test": "native ELISA on the diversity set of 100 A. baumannii strains", "data": [{"binder": "B1", "values": [{"measurement": "percent of strains recognized", "result": "> 68", "unit": "%"}]}]}
